Values of other authors as cited in article PMC3623542.
pKd: −log10 of the molar value. Where two headings read alike, the source gives them in different places.

Columns and labels:
DnaK (Escherichia coli) [1] = target: DnaK (Escherichia coli) (UniProt P0A6Y8); assay: NMR
DnaK (Escherichia coli) [2] = target: DnaK (Escherichia coli) (UniProt P0A6Y8); assay: SPR
DnaK (Escherichia coli) [3] = target: DnaK (Escherichia coli) (UniProt P0A6Y8); assay: SPR; remark: listed apart in the source
DnaK (Escherichia coli) [4] = target: DnaK (Escherichia coli) (UniProt P0A6Y8)
DnaK (Escherichia coli) [5] = target: DnaK (Escherichia coli) (UniProt P0A6Y8); assay: SPR; remark: listed apart in the source
DnaK (Escherichia coli) [6] = target: DnaK (Escherichia coli) (UniProt P0A6Y8); remark: listed apart in the source

Chain of DnaJ (P08622 2-376): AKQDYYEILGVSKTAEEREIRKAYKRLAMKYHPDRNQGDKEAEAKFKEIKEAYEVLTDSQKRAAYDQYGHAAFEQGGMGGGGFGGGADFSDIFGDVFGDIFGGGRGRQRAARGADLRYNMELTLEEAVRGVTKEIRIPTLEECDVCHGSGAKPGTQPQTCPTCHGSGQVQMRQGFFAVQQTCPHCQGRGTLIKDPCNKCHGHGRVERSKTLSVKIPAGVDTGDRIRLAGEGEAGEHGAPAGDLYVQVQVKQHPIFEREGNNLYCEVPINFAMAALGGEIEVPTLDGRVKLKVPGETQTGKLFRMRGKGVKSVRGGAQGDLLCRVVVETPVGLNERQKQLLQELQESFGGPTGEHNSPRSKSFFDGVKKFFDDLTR
Chain of DnaK (Escherichia coli) (P0A6Y8 2-638): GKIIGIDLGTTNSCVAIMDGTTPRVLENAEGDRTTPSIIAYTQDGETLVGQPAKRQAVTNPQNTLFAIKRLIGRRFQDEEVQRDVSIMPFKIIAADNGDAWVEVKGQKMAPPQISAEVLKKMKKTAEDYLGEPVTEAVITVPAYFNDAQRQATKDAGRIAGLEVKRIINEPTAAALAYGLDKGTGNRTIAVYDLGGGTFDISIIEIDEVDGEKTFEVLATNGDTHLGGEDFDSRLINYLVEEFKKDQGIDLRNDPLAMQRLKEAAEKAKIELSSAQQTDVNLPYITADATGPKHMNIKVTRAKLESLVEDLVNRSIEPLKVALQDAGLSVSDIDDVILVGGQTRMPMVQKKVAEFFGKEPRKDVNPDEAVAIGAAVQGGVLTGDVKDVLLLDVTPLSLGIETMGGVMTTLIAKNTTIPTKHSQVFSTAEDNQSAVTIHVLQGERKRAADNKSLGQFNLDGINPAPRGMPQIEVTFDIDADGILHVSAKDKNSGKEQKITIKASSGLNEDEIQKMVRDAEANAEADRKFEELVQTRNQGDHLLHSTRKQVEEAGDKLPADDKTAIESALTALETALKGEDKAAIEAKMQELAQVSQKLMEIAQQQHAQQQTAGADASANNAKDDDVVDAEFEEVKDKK
Chain of DnaJ 1-75 (P08622 1-75): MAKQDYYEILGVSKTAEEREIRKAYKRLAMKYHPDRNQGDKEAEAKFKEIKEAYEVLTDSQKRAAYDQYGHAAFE

Row | Substance | pKd (DnaK (Escherichia coli) [1]) | pKd (DnaK (Escherichia coli) [2]) | pKd (DnaK (Escherichia coli) [3]) | pKd (DnaK (Escherichia coli) [4]) | pKd (DnaK (Escherichia coli) [5]) | pKd (DnaK (Escherichia coli) [6])
1 | DnaJ 1-75 (from UniProt P08622) | 5.00 | – | – | – | – | –
2 | DnaJ (from UniProt P08622) | – | 7.15 | 6.52 | < 5.70 | < 6.00 | 6.85
